In the supplement of paper PMC7877785:
± gives the uncertainty stated by the source.

Test: self-splicing fitness, log relative to wild type (ln ratio); higher = more splicing; Tetrahymena group I intron in knt gene, E. coli kanamycin selection, DiMSum; sequences stand for … in CUCUCU…GGAGGGAAAAGUUAUCAGGCAUGCACCUGGUAGCUAGUCUUUAAACCAAUAGAUUGCAUCGGUUUAAAAGGCAAGACCGUCAAAUUGCGGGAAAGGGGUCAACAGCCGUUCAGUACCAAGUCUCAGGGGAAACUUUGAGAUGGCCUUGCAAAGGGUAUGGUAAUAAGCUGACGGACAUGGUCCUAACCACGCAGCCAAGUCCUAAGUCAACAGAUCUUCUGUUGAUAUGGAUGCAGUUCACAGACUAAAUGUCGGUCGGGGAAGAUGUAUUCUUCUCAUAAGAUAUAGUCGGACCUCUCCUUAAUGGGAGCUAGCGGAUGAAGUGAUGCAACACUGGAGCCGCUGGGAACUAAUUUGUAUGCGAAAGUAUAUUGAUUAGUUUUGGAGUACUCGUGGUCG
How it was run: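 Six replicate transformations of E. coli BL21(DE3) with a pET-22b(+) library were grown overnight at 37°C or 30°C. The library randomised all eight P1ex-region intron nucleotides, the intron lying in the knt kanamycin-resistance gene, and plates were LB agar with or without 25 μg/mL kanamycin plus 100 μg/mL carbenicillin, 50 μM IPTG and 0.2% rhamnose. Pooled colonies were amplicon-sequenced on an Illumina HiSeq 2500, and fitness is the DiMSum error-weighted combination of wild-type-normalised replicate fold changes, kanamycin versus none.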

| Sequence | self-splicing fitness (ln) (30 °C) | self-splicing fitness (ln) (37 °C) |
| --- | --- | --- |
| CCUCAGCAAUAUUACGGACG | -0.587 ± 0.064 | 0.272 ± 0.081 |
| CGUGAGCAAUAUUACGGCUC | -3.79 ± 0.42 | -1.23 ± 0.27 |
| CAAGAGCAAUAUUACGAAAC | -2.91 ± 0.36 | – |
| AAGGAGCAAUAUUACGAAAG | -2.93 ± 0.21 | – |
| CAGUAGCAAUAUUACGUCAC | -2 ± 0.25 | – |
| CACUAGCAAUAUUACGUAUG | -1.82 ± 0.061 | -0.818 ± 0.068 |
| UCCCAGCAAUAUUACGCCGG | -2.84 ± 0.28 | -1.21 ± 0.3 |
| UUGUAGCAAUAUUACGAUGG | -1.53 ± 0.16 | -0.75 ± 0.2 |
| CAGUAGCAAUAUUACGGAGA | -2.32 ± 0.24 | – |
| CGCCAGCAAUAUUACGUUGA | -2.84 ± 0.11 | -2.83 ± 0.13 |
| GUAGAGCAAUAUUACGCCUU | -0.0606 ± 0.13 | 0.0599 ± 0.17 |
| GGGAAGCAAUAUUACGGAGG | -2.91 ± 0.41 | -1.99 ± 0.35 |
| UCCUAGCAAUAUUACGAUAA | -3.25 ± 0.29 | -1.56 ± 0.17 |
| GAUUAGCAAUAUUACGCUUG | -0.829 ± 0.079 | -0.445 ± 0.093 |
| UCAAAGCAAUAUUACGGCUU | -5.11 ± 0.45 | -2.32 ± 0.2 |
| UGGCAGCAAUAUUACGCACG | -1.22 ± 0.18 | 0.284 ± 0.19 |
| CGUCAGCAAUAUUACGAUUU | -1.01 ± 0.06 | -1.11 ± 0.061 |
| UUAUAGCAAUAUUACGGAGC | – | -2.95 ± 0.43 |

| Sequence | self-splicing fitness (ln) (30 °C) | self-splicing fitness (ln) (37 °C) |
| --- | --- | --- |
| UUAAAGCAAUAUUACGAGUA | -1.08 ± 0.096 | -0.715 ± 0.11 |
| AUUAAGCAAUAUUACGAAGG | -3.82 ± 0.4 | -2.5 ± 0.44 |
| ACUCAGCAAUAUUACGGCCC | -1.32 ± 0.15 | -0.343 ± 0.19 |
| GCCGAGCAAUAUUACGGUUG | -1.38 ± 0.14 | -0.555 ± 0.19 |
| AGAGAGCAAUAUUACGACAG | -3.47 ± 0.43 | -2.52 ± 0.41 |
| UAACAGCAAUAUUACGCCAC | -3.93 ± 0.35 | -1.54 ± 0.23 |
| UAAGAGCAAUAUUACGGAAC | -2.54 ± 0.33 | -3.2 ± 0.46 |
| UUGGAGCAAUAUUACGAGGC | -3.52 ± 0.4 | – |
| AAGAAGCAAUAUUACGGGCA | -0.698 ± 0.092 | -0.225 ± 0.11 |
| CCAGAGCAAUAUUACGGUUC | -4.36 ± 0.21 | -2.38 ± 0.18 |
| GAAUAGCAAUAUUACGUUUC | -3.37 ± 0.19 | -2.4 ± 0.29 |
| CGGGAGCAAUAUUACGUUAA | -2.63 ± 0.28 | -1.68 ± 0.3 |
| UACCAGCAAUAUUACGCCUA | 0.00559 ± 0.047 | 0.659 ± 0.065 |
| UUUAAGCAAUAUUACGCGGG | -1.81 ± 0.13 | -1.63 ± 0.14 |
| AACAAGCAAUAUUACGUCCA | -1.12 ± 0.068 | -0.468 ± 0.076 |
| GGGCAGCAAUAUUACGCGCC | -3.31 ± 0.18 | -2.82 ± 0.28 |
| GCGUAGCAAUAUUACGGAGU | -2.88 ± 0.16 | -1.44 ± 0.14 |
